Test results: the nanobody polyreactivity screen of Harvey et al. (2022)

Assay: yeast display, Sf9 membrane polyspecificity reagent, FACS + sequencing; frameworks hold sequencing errors
Method in brief: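 Genes from sorted yeast were amplified by colony PCR, read by MiSeq 2 × 250 sequencing and filtered on CDR length. These cells carried a synthetic nanobody library in Saccharomyces cerevisiae BJ5465 and were sorted by FACS into low and high (top ~1%) gates on anti-HA and streptavidin fluorescence. Polyreactivity is labelled according to the gate of origin.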

Row | Sequence | polyreactivity (PSR sort gate)
1 | QVQLVESGGGLVQEGGSLRLSCAASGSTFRRYAMGWYRQAPGKERELVASISRSGGSTYYADSVKGRFTISRDNAKNTVYLQMNSLKSEDTAVYYCSKKPYKSAYDYSTAYDYWGQGTLVTVSS | high polyreactivity
2 | PVQLVESGGGLVQAGGSLRLSCAASGFTFYSYAMGWYRQAPGKEREFVAAGSTYYADSVKGRFTISRDNAKNTVYLQMNSLKPEDTAVYYCAADPWIYVQSYGFWGQGTQVTVSS | low polyreactivity
3 | QVQLVESGGGLVQAGGSLRLSCAASGLTFRYYAMGWYRQAPGKERELVAAITGSGGSTYYADSVKGRFTISRDNAKNTVYLQMNSLKPEDTAVYYCADVIAEYDYFSYYYEYDYWGQGTQVTVSS | high polyreactivity
4 | QVQLVESGGGLVQAGGSLRLSCAASGSTFPGYAMGWYRQAPGKERELVAAINWRGDSTYYADSVKGRFTISRDNAKNTVYLEMNSLKPEDPAVYFCNTVWGSPSRSSAYDYWGQGTQVTVSS | high polyreactivity
5 | QVQLEESGLGLVQAGGSLRLSCAASGFTFYGNAMGSYRKAPGKEREFVAAISSSGASTRYADSVKGRFTISRDNAKNTVYLQMYSLKPEDTAVYYCAADAPAWILEAYGYWGQGTQVTVSS | low polyreactivity
6 | QVQLVESGGGLVQAGGSLRLSCAASGFIFSNNAMGWYRQAPGKERELVAAISGRGGSTYYADSVKGRFTISRDNAKNTVYLQMNSLKPEDTAVYYCNALYTYSYSRFDYWGEGTQVTVSS | low polyreactivity
7 | QVQLVESGGGLVQAGGSLRLSCAASGRILIPYAMGWYRQAPGKEREFVAGITGSGGRTYYADSVKGRFTISRDNAKNTVYLQMNSLKPEDTAVYYCDAVYYYSPTMYYWGQGTQVTVSS | low polyreactivity
8 | HVQLQESGGGLVQVGGSLRLSCAASGTIFIYGFLGWNRQAPGKERELVASINLGGITNYADSVKGRFTIRRDNAKNTVYLQMISLKPEDTAVYYCAAYVVTGQNYGYWGQGTQVTVSS | low polyreactivity
9 | QVQLVESGGGLVQAGGSLRLSCAASGSTFTYYAMGWYRQAPGKERELVAAITWSGVSTYYADSVKGRFTISRDNAKNTVYLQMNSLKPEDTAVYYCANGYSYGWWGGFGYWGQGTQVTVSS | high polyreactivity
10 | QVQLVESGGGLVQSGGSLRLSCAASGYIFRFNAMGWYRQAPGKEREMVAVITSGARTYYADSVKGRFTISRDNAKNTVYLQMNSLKPEDTAVYYCNAGARRYLYDYWGHGTQVTVSS | low polyreactivity
11 | QVQLVESGGGLVQAGGSLRLSCAASGRTFYFYAMGWYRQAPGKERELVAAITFSGGSTYYADSVKGRFTISRDNAKNTVYLQMNSLKPEDTAVYYCIAVSTYKREYWGQGTQVTVSS | low polyreactivity
12 | QVQLVESGGGLVQAGGSLRVSCAASGSIFHENAMGWYRPAPGKEWELVAAIDQTGSTYADSVKGRFTISRDNAKNTVYLQMNSLKPEDTAVYYCAKGDVSLDYPSLEFDYWGQGTQVTVSS | low polyreactivity
13 | QVQLVESGGGLVQAGGSLRLSCAASGYIFGHYAMGWYRQAPGKERELVAGITWRGGSTYYADSVKGRFTISRDNAKNTVYLQMNSLKPEDTAVYYCNAQYTQRWPYGLYYEMDYWGQGTQVTVSS | low polyreactivity
14 | QVQLVESGGGLVQAGGSLRLSCSASGSIFLIYAMGWYRQAPGKERELVATINRGDNTYYADSVKGRFTISRDNAKNSVYLQMNSLKPEDTAVYYCAARAYDLGYAGYDYWGQGTQVTVSS | low polyreactivity
15 | QVQLVESGGGLVQAGGSLRLSCAASGFTFTSYAMGWYRQAPGKEREFVAAIRRSGSGTYYADSVKGRFTISRDNAKNNVYLQMNSLKPEDTAVYYCAFVPPRLYYHYDYWGQGTQVTVSS | high polyreactivity
16 | QVQLVESGGGLVQAGGSLRLSCAASGSTFNRYAMGWYRQAPGKERELVAAISSGGTTYYADSVKGRFTSSRDNAKNTVYLQMNSLKPEDTAVYYCNARKYGWVQRIIIYDYWGQGTQVTVSS | high polyreactivity

Row | Sequence | polyreactivity (PSR sort gate)
17 | QVQLEESGGGLVQAGGSLRLSCAASGLIFPVYAMGWYRQAPGKERELVASISWNGGSTYYADSVKGRFTISRDNAKNTVYLQMNSLKPEDTAVYYCNKYPVSLWYYSKDYTYDYWGQGTQVTVSS | low polyreactivity
18 | QVQLVESGGGLVQAGGSLRLSCAASGSTFWKYVKGWYRQAPGKERELVAAISNSGVNTYYADSVKGRFTISRDNAKNTVYLQMNSLKTEDTAVYYCAADRCGYEYWGQGTQVTVSS | high polyreactivity
19 | QVQLVESGGGLVQAGGSLRLSCAASGFTFYGYAMGWYRQAPGKERELVADISYRGGSTYYADSVKGRFTISRDNAKNTVYLQMNRLKPEDTAVYYCAARATPTYYAGQREDYNYWGQGTQVTVSS | high polyreactivity
20 | QVQLVESGGGLVQAGGSLRLSCAPSGRTFYIYAMGWSRQAPGKERELVAAITRSGGSTYYADSVKGRFTISRDNAKNTVYLQMNSLKPEDTAVYYCNARRWITSDYWGQGTQVTVSS | high polyreactivity
21 | QVQLVESGGGLVQAGGSLRLSCAASGRNFWFNAMGWYRQAPGKVRELVAAISGGSTNYADSVKGRFTISRDNAKNHVYLQMNSLKPEDTAVYYCAARYLLRYNWGQGTQVTVSS | high polyreactivity
22 | QVQLVESGGGLVQAGGSLRLSCAASGSIFLYYVMGWYRQAPGKERELVAAITWDGGSTYYADSVKGRFTISRDNAKNTVYLQMNSLKPEDTAVYYCNADTIVAWFDIFEEMDSWGQGTQVTVSS | low polyreactivity
23 | QVQLVESGGGLVQAGGSLRLSCAASGSIFVKYTMGWYRQAPGKERELVAAISFRGGSTYYADSVKGRFTISRDNAKNTVYLQINSLKPEDTAVYYCNADGGWWPEYYWGQGTQVTVSS | low polyreactivity
24 | QVQLQESGGGLVQAGGSLRLSCAASGSIFVSVTMGWYRQAPGKERELVASIGRGSTTNHADSVKGRFTISRDNAKNIVYLLMNSLKPEDTAVYYCAALESYGKYHGYWGQGTQVTVCS | low polyreactivity
25 | QVQLVESGGGLVQAGGSLRLSCAASGITFPFNAMGWYRQAPGKERELDAAISSTGSTNYADSVKGRFTISRDNAKNTVYLQMNSLKPEDTAVYYCNKRSNYRRGDGRRHLYWGQGTQVTVSS | low polyreactivity
26 | QVQLVESGGGLVQAGGSLRLSCAASGSTFDANAMGWYRQAPGKERELVAAISRSGGNTYYPDSVKGRFTISRDNAKNTVYLELNSLKPEDTAVYYCAADFRNAYYDRLDYWGQGTQVTVSS | low polyreactivity
27 | QVQLVESGGGLVQAGGSLRLSCAASGSIFDIYGMGWYRQAPGKESELFASISGGAGSTNYADSVKGRFTISRDNAKNTVYLQMNSLKPEDTAVYYCAAEVYVPDYFQHKFDVEYEYWGQGTQVTVSS | low polyreactivity
28 | QVQLVESGGGLVQAGGSLRLSCAASGITFSTYAMGWYIQAPGKERELVAAITKSGGSTYYADSVKGRFTISRDNAKNTVYLQMNRLKPEDTAVYYCAARFPHRHYLLYTYDYWGQGTQVTVSS | low polyreactivity
29 | QVQLVESGGGLVQAGGSLRLSCAASGSTFRGYAMGWYRQAPGKEREFVAAISRRGGTTYYADSVKGRFTISRDNAKNTVYLQMNSLKPEDTAVYYCNKVYYQHYLAFDYWGQGTQVNVSS | high polyreactivity
30 | QVQLVESGGGLVQAGGSLSLSCAATGSTLKFNAMGWYRQAPGKERELVAAINFSGGSTYYADSVKGRFTISRDNAKNTVYLQMNSLKPEDTAVYYCAAEASYYSRSVRWRYDYYYWGQGTQVTVSS | high polyreactivity
31 | QVQLVESGGGLVQAGGSLRLSCAASGRIFIGYAMGWYRQAPGKERELVAAISRSGGSTYYADSVKGRFTISRDNAKYTVYLQMNSLKPEDTAVYYCAASPPFGYYYWGQGTQVTVSS | high polyreactivity
32 | QVQLVESWGGLFQAGGSLRLSCAASGSIFVWYAMGRSRQAPGKEMELVAVISYGGDRTSYADSVKGRFTISRDNAKNTVYLQMNSLKPEDTAVYYCAARPFYRGYYYWGQGTQVTVSS | high polyreactivity
